Among the data in paper PMC12728192 (2025) are Kd values, retold here.

For orientation: Kd means a measure of binding affinity in units of concentration.

For test [1], the target named is T1, Thermothelomyces thermophilus SAM complex (sorting and assembly machinery complex; Sam50:Sam35:Sam37, monomer) (Thermothelomyces thermophilus). Description: MST; replicate 3; detergent.
Test [2] addresses T1, Thermothelomyces thermophilus SAM …. Description: MST; replicate 6; detergent.
Test [3] shares this target. Description: MST; replicate 1; detergent.

Ends that are not written are not given here.

T1 sequence (chain, as listed by the source, chain 1 of 3): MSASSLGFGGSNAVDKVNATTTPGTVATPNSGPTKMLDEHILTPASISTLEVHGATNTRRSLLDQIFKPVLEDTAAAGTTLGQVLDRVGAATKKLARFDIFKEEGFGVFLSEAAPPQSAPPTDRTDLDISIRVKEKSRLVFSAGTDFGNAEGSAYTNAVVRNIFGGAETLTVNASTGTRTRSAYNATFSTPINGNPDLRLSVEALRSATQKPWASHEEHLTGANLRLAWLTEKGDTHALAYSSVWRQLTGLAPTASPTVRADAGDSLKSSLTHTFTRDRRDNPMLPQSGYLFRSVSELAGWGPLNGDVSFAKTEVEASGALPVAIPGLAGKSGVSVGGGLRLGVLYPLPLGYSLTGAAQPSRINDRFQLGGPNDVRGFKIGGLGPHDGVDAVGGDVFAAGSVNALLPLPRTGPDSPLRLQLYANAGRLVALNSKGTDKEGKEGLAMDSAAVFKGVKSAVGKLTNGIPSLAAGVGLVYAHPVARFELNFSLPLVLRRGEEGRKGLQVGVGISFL
T1 sequence (chain, as listed by the source, chain 2 of 3): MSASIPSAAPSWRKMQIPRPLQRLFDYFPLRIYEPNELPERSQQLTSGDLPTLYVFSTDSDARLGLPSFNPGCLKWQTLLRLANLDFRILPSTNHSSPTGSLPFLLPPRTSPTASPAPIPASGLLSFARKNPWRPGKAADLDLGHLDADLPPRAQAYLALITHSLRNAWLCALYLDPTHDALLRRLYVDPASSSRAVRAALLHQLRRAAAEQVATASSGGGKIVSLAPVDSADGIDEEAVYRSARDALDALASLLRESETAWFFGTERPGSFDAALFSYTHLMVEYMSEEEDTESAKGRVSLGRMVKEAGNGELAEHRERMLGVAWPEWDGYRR
T1 sequence (chain, as listed by the source, chain 3 of 3): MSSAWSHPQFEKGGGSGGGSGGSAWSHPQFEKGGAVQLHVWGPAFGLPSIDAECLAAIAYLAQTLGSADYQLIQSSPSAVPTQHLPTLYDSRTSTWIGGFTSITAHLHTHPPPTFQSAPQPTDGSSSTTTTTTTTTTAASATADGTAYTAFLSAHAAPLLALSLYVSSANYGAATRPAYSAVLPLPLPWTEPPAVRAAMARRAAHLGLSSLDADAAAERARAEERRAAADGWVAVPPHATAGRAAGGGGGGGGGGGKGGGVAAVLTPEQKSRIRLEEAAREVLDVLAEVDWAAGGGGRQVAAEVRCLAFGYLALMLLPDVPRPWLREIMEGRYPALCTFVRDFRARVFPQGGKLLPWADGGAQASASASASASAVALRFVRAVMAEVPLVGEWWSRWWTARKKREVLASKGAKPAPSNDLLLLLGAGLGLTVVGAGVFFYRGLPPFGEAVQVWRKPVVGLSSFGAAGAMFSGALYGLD

In test [1], WNWSKSF [linear darobactin] yielded an equilibrium dissociation constant (Kd) of 491000 nM.

Regarding WNWSKSF (also: backbone cyclizations, places not given here) [darobactin A], the dissociation constant (Kd) in test [2] is 166 nM; in test [3], 149 nM.
